The supplement of paper PMC12764529
± gives the half width of the 95% confidence interval.

Assay: folding stability dG unfold (combined trypsin and chymotrypsin); higher = more stable
Experimental: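 Folding stability of de novo designed mini-proteins (<80 aa, no Cys; designed by TrROS, TrMRF, ProteinMPNN and the joint model) was measured by cDNA display proteolysis with trypsin and chymotrypsin. Each protease was used at 11 concentrations in a threefold dilution series plus a no-protease condition. K50 was inferred by Bayesian fitting of sequencing counts, and dG unfold was derived against a sequence-predicted unfolded-state K50 (Tsuboyama et al. method). Sequences shown include variable-length N-terminal GS-type padding (SAGGSAGG...) inside a display construct carrying a PA tag. Rows were kept only if the AF2 dimer inter-PAE was >15, to exclude likely homo-oligomers.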

Folding stability dG unfold, -2.63 ± 2.01 kJ/mol:
PEPGAVETRETDYIDPNNNNKYKATITTTRDPNSDLATVNTTIKLPNGETLNYSATINPNPGTVTSTTSISS [r1_144_JUSTAS]

Folding stability dG unfold, < -4.18 kJ/mol:
SAGGSAGGSAGPRVTLTPDPNSDYVLVTTYPGDGSSTTSNVPVSELEKVRKELPADFTLASAGGSAGGSAGG [r11_569_JUSTAS]
SAGGMTKTYDPNGRTITELPDGTVVETTVDPSKPLTKVTTTTVEGDNVVSSTEILQEVSLPETSPYLSAGGS [r8_142_JUSTAS]
SAGYELKILKAEVKDGEIDIPILHPDGRPSTARIKVELVEGEDGIPRPVLKIEIPEEELKNSIPPELLKSAG [r5_462_TrMRF]
SAGGSAGGSDKEREVPIEVRYPNQPLKIPVEFKDEEDAPHKARSAIKPLMKKLPMVKIPKPDDSAGGSAGGS [r12_230_TrROS]
SAGGSAGGSAGMEEIKERYRKELEAEGRPVKEIKAEKLPPTNTIVVTLDFENKPIVIPLPSAGGSAGGSAGG [r11_279_JUSTAS]
SAGGSAGGSFEVHYDPEPNNLTIRMEFPGGRRTYRIPSADDVKDWFEDMGMPFKPMEITKIEPSAGGSAGGS [r12_834_TrROS]
SAGGMKAKIIPFTVAGGAYEPETGELKKPVPVKVTLIEVEPEPDVKVEEIAEEFEKAFPGKGVIVAPSAGGS [r8_30_TrMRF]
SAGGSAGGSPPPKVKVKKFHRDPPNGYVRANIEFPDKRDIEIQMENMPPDQAEEKAKNLAKKLSAGGSAGGS [r20_181_TrROS]
MKVLKTETKPIPGSGKIEVRVEYEVDGFFDPATGKPYSPDYLVTEKKTITVPPDSDDEIVTSSITFHPNLKS [r1_147_JUSTAS]
SAGGSAGGSAADLAKLEKVEVEEVPTDPNAEYRVTAELPTPGEPVEFTRRRLPDGSWEYSGSAGGSAGGSAG [r3_234_JUSTAS]
SAGGSAGGKPIVFKGKHDGKEMIFPIELNPENGQIKITPMNGKELRIPPNKPPKIVEVDPNDFESAGGSAGG [r6_174_TrROS]
SAGGSAPIEIEVRLGDKPRTIDIEPNPEGMYPIKVYNDGPGKPKEHMIPPNNLDELKNLDPDRIEISAGGSA [r15_629_TrROS]
SAGGMPLEKIKEIKLVKEKEDGEKEILIVVEDPELVKEGNVEEVKKLAEALAEELKKKGIKVKIEVKPSAGG [r13_243_TrROS_Hall]
SAGGSAGGSAGSVAEALADKTITVTSPSSSTPYTATITPGADDTLRVGSPGSSGTDISVARLSAGGSAGGSA [r18_169_JUSTAS]
SAGGSAGGSGMAVVEVDITGPTSTSEEEAQARAEALAAEIAAASDSADVRATVRFSRVPPELPSAGGSAGGS [r12_522_JUSTAS]
SAGGSAGGSAGMPVIEEKLVFYTGDGTPREKKVKVTTTPLPNGTTKKTYDIPKDEIKKLPSAGGSAGGSAGG [r11_816_JUSTAS]
SAGGSAGGSAGGPEWKEVPFTLRMPDGEPMDAKVYIDPEGPLEIENDDKWHTFPADQLKSAGGSAGGSAGGS [r10_649_TrROS]
SAGGNLKIEMGDNPHEIPVDPNQVDTPEEAIEEVADQIRNRFPQFGPFRVRVETEGGKEIAMINIKPKSAGG [r13_257_TrROS]
SAGGFPISIERWDPDGKKRRREIPMDDPDEIKEFLDDLPPDRPVRIHMPNPQHFNALKNAGFDEVEMMSAGG [r13_476_TrROS]
SAGGIKELADEGAEIKDVTWPVRFPDGNPMRITEIKPTDGGLDIRFEPPNDGREQEHPIPPDNIEPLPSAGG [r13_340_TrROS]
SAGMVIPATSEEEAEAFAKELGPETGYEVEIEKVPADEPVEDVDPNDILVVLPESGTVYRIHVRRPDEESAG [r5_173_TrMRF]
SAGGSAGGIKIDPNIKEITWHQNPNGMFYHTIKVDEGKKVAPVRFPPDQPPEQMWDNAKEALKESAGGSAGG [r6_436_TrROS]
SAGGSAGGSAGGKVIHIPAGDAKTFIKEALEKDKDQPIVIHMYNPDGKEYSTMEVKIKPSAGGSAGGSAGGS [r10_741_TrROS]
SAGGSAGGSAGAPRVRSVTPVGEETFFLPEDRVVRVTLWAAEGEGPPRLFRRVEVLPLDESAGGSAGGSAGG [r11_129_TrMRF]
SAGGMSPNQKVTIEIDNWHPGPGGNYFNVRIRNPGNGKPREINGPGDNPEDMKKEIEELVKAGPIEIYSAGG [r13_286_TrROS]
SAGITIDELRNQPPKKRVTEVNWNPNQGNYRVEVVRPDPDGKPKKHEYEVNSPQQIRDKLKNGFDYIHISAG [r5_905_TrROS]
SAGGSAGGSAGGGMKKITISDPVKPGAVITFPLTGETITVPANSSVTITLTEPLPGTYDLSAGGSAGGSAGG [r7_234_JUSTAS]
SAGGSAGGSAGGPEPIPVKISMWNPNGKPMGTFEFPIETPEDLDEFAREDGMPFRVEPESAGGSAGGSAGGS [r10_958_TrROS]
SAGGSAGGSAGGMTTTVIEVDVEPGEVSEEEIKKRLAPLTGKPIEITTDPSGIPVITVEESAGGSAGGSAGG [r7_330_JUSTAS]
SAGGSAGGSTAGEAESEEISVEPLPDGPYLVTRSVVRTLPDGSSEVTETVPSIATDPAEIAEASAGGSAGGS [r12_386_JUSTAS]
SAGGSAGGSAGGMIYPPDEVLEKTTKVEVELPNETGKTITKTIVTKTYAESGKSTIETAGSAGGSAGGSAGG [r17_266_JUSTAS]
SSPPPSITVKSISREPATGTVTIPTSHPSGKHISVEWRSPDGTVTVVPPDKPTATLPAAPDWTLTKISVGSA [r9_113_JUSTAS]
SAGGSAGGSAGLEIPPELTVTSTFTVPPSGRRVLELLNPATNEPVVLDLETGEIHPSEALSAGGSAGGSAGG [r11_268_JUSTAS]
SAPYIRKVTYTTTFYPPDGTPVQSTKPTTEPVDPAEKDTTTTSTTALPDGGSVTTTSTTTVEPAEPALLSAG [r14_268_JUSTAS]
SAGGSAGGSAGKRIIINMPAEQAIDWAREMLPPNQPIEIFNPDHGKTREFPIPPPSPDEKSAGGSAGGSAGG [r11_163_TrROS]
SAGGSAGGSAGGSMSWDDRPPVISTSVVKLPIEPGTVVKEGSKTYVAKPDGTVTVIDPRSAGGSAGGSAGGS [r4_394_JUSTAS]
SAGGSAGGSKIKIEDIHPNPNGMFMFRIRPPDNGKPREVPFDSPEDAERFADELEEDGYKIEISAGGSAGGS [r20_177_TrROS]
SAGGSAGGSAGGMTAVVTEPRLENGKEYLVRTVREFPSAEPRPGAVLEEEVVPLDVPLESAGGSAGGSAGGS [r10_730_JUSTAS]
SAGGSATIEIDPPHGKIEIEVNVPVYEKRKDPDGKEEPEPQELPPEEAQEFAKMMADTFAQKLNGKSAGGSA [r15_365_TrROS]
SAGSPADVVPLEIPFVTEDGSRVRATLLYDPATGEVTVPIETEDPALGRRAAAFARRLAEELGAPDVRPSAG [r5_99_TrMRF]
SAGGIRIRPGQKIEDIEFEVEKNPDGEPPIKVKIRWPDKGKPHTYTMTPGQDVGNFADKNGWPIEVVSAGGS [r16_676_TrROS]
SAMLVVKNKKTKKPIEIKIDPSMTPEEIKKKIEKLPDIPEEQKKEVEEAIELYIKLLENPELAKKFEKESAG [r14_732_TrMRF]
SAGGSAGGSPIRRALRYVREQFPPGQPYRVRARNPGNGKEREIEVPWNDPEELDNTKDIEVEPYSAGGSAGG [r6_402_TrROS]
